For three substances, ECL signal and Signal/Blank results are on record in patent US20120316071A1.

For experiment [1], the target named is rHuman P-Cadherin/Fc Chimera, CF (R&D Systems Cat#861-PC) (human) (UniProt P22223). In words: MSD ECL multispot assay, antigen spotted on plate, Fab in solution; blank spot of this row 348.
Experiment [2] shares this target. Description: MSD ECL multispot assay, antigen spotted on plate, Fab in solution; blank spot of this row 504.
The target of experiment [3] is Recombinant Human DLL4 (human) (UniProt Q9NR61). Description: ECL (MSD) multispot binding assay, DLL4 signal over blank spot.
The target is the same in experiment [4]. In words: ECL (MSD) multispot binding assay, DLL4 spotted on plate, Fab in solution.
In experiment [5] the target is Recombinant Human DLL4 (delta-like protein 4) (human) (UniProt Q9NR61). In words: ECL multispot (MSD) binding assay; antigen spotted on plate, Fab in solution.
Experiment [6] deals with rHuman CD44/Fc Chimera, CF (R&D Systems Cat#3660-CD) (human) (UniProt P16070). In words: MSD multispot ECL, antigen spotted on plate, Fab at 6 nM (blank spot 191).
Experiment [7] deals with rHuman EGF R/Fc Chimera, CF (R&D Systems Cat#344-ER) (human) (UniProt P00533). Described as above.
In experiment [8] the target is rHuman ErbB2/Fc Chimera, CF (R&D Systems Cat#1129-ER) (human) (UniProt P04626). The description is as above.
Experiment [9] addresses rHuman Erythropoietin R/Fc Chimera, CF (R&D Systems Cat#963-ER) (human) (UniProt P19235). The experiment is described as above.
Experiment [10] addresses rHuman HGF R/c-MET/Fc Chimera, CF (R&D Systems Cat#358-MT/CF) (human) (UniProt P08581). The experiment is described as above.
In experiment [11] the target is rHuman IGF-1 sR, CF (R&D Systems Cat#391-GR) (human) (UniProt P08069). The experiment is described as above.
For experiment [12], the target named is rHuman Notch-1/Fc Chimera, CF (R&D Systems Cat#3647-TK) (human) (UniProt P46531). Described as above.
Experiment [13] deals with rHuman P-Cadherin/Fc Chimera, CF (R&D Systems Cat#861-PC) (human) (UniProt P22223). The experiment is described as above.
In experiment [14] the target is rHuman CD44/Fc Chimera, CF (R&D Systems Cat#3660-CD) (human) (UniProt P16070). In words: MSD multispot ECL, antigen spotted on plate, Fab at 17 nM (blank spot 143).
In experiment [15] the target is rHuman EGF R/Fc Chimera, CF (R&D Systems Cat#344-ER) (human) (UniProt P00533). Described as above.
The target in experiment [16] is rHuman ErbB2/Fc Chimera, CF (R&D Systems Cat#1129-ER) (human) (UniProt P04626). The experiment is described as above.
Experiment [17] concerns the target rHuman Erythropoietin R/Fc Chimera, CF (R&D Systems Cat#963-ER) (human) (UniProt P19235). The experiment is described as above.
The target of experiment [18] is rHuman HGF R/c-MET/Fc Chimera, CF (R&D Systems Cat#358-MT/CF) (human) (UniProt P08581). The description is as above.
rHuman HGF R/c-MET/Fc Chimera, CF (R&D Systems Cat#358-MT/CF) (human), sequence (P08581 25-932, change not shown): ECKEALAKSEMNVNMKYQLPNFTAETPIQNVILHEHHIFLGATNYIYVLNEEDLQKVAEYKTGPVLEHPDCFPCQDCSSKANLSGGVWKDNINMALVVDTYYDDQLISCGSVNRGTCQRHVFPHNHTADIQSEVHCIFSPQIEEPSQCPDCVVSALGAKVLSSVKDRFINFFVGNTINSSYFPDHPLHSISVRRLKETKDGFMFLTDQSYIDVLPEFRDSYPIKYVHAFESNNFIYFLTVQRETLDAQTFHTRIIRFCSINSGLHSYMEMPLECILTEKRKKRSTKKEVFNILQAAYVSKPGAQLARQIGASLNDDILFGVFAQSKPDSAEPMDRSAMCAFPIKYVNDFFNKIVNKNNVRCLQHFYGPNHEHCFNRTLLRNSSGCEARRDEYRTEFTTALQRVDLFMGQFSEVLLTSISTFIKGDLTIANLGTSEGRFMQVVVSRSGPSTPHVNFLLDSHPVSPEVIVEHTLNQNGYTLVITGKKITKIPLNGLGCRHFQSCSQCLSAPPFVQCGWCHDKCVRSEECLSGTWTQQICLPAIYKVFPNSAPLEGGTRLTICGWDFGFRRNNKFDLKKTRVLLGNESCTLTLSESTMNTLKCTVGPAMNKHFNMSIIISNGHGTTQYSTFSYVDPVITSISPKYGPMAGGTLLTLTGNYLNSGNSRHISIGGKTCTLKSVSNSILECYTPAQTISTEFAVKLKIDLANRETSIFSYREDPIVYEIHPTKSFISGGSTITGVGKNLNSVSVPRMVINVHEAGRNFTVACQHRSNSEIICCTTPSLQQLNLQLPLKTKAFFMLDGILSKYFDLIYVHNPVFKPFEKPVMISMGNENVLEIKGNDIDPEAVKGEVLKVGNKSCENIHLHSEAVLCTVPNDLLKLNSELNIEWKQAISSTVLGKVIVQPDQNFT
Experiment [19] concerns the target rHuman IGF-1 sR, CF (R&D Systems Cat#391-GR) (human) (UniProt P08069). The description is as above.
For experiment [20], the target named is rHuman Notch-1/Fc Chimera, CF (R&D Systems Cat#3647-TK) (human) (UniProt P46531). The description is as above.
In experiment [21] the target is rHuman P-Cadherin/Fc Chimera, CF (R&D Systems Cat#861-PC) (human) (UniProt P22223). Described as above.
Experiment [22] addresses rHuman CD44/Fc Chimera, CF (R&D Systems Cat#3660-CD) (human) (UniProt P16070). Description: MSD multispot ECL, antigen spotted on plate, Fab at 51 nM (blank spot 335).
In experiment [23] the target is rHuman EGF R/Fc Chimera, CF (R&D Systems Cat#344-ER) (human) (UniProt P00533). The description is as above.
Experiment [24] addresses rHuman ErbB2/Fc Chimera, CF (R&D Systems Cat#1129-ER) (human) (UniProt P04626). The description is as above.
Experiment [25] deals with rHuman Erythropoietin R/Fc Chimera, CF (R&D Systems Cat#963-ER) (human) (UniProt P19235). The description is as above.
rHuman Erythropoietin R/Fc Chimera, CF (R&D Systems Cat#963-ER) (human), sequence (P19235 25-250, change not shown): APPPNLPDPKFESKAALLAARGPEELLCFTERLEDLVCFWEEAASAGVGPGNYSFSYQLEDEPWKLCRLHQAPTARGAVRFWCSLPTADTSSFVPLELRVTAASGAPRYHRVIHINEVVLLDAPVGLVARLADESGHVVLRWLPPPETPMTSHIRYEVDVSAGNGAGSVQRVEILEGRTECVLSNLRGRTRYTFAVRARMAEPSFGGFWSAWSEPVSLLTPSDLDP
The target in experiment [26] is rHuman HGF R/c-MET/Fc Chimera, CF (R&D Systems Cat#358-MT/CF) (human) (UniProt P08581). Described as above.
Experiment [27] concerns the target rHuman IGF-1 sR, CF (R&D Systems Cat#391-GR) (human) (UniProt P08069). The description is as above.
Experiment [28] has as its target rHuman Notch-1/Fc Chimera, CF (R&D Systems Cat#3647-TK) (human) (UniProt P46531). The experiment is described as above.
Experiment [29] addresses rHuman P-Cadherin/Fc Chimera, CF (R&D Systems Cat#861-PC) (human) (UniProt P22223). The experiment is described as above.
Experiment [30] has as its target rHuman CD44/Fc Chimera, CF (R&D Systems Cat#3660-CD) (human) (UniProt P16070). In words: MSD multispot ECL, antigen spotted on plate, Fab at 154 nM (blank spot 447).
The target in experiment [31] is rHuman EGF R/Fc Chimera, CF (R&D Systems Cat#344-ER) (human) (UniProt P00533). The description is as above.
Experiment [32] deals with rHuman ErbB2/Fc Chimera, CF (R&D Systems Cat#1129-ER) (human) (UniProt P04626). Described as above.
Experiment [33] addresses rHuman Erythropoietin R/Fc Chimera, CF (R&D Systems Cat#963-ER) (human) (UniProt P19235). The description is as above.
Experiment [34] deals with rHuman HGF R/c-MET/Fc Chimera, CF (R&D Systems Cat#358-MT/CF) (human) (UniProt P08581). The description is as above.
The target in experiment [35] is rHuman IGF-1 sR, CF (R&D Systems Cat#391-GR) (human) (UniProt P08069). The experiment is described as above.
The target of experiment [36] is rHuman Notch-1/Fc Chimera, CF (R&D Systems Cat#3647-TK) (human) (UniProt P46531). The experiment is described as above.
Experiment [37] has as its target rHuman P-Cadherin/Fc Chimera, CF (R&D Systems Cat#861-PC) (human) (UniProt P22223). The description is as above.

Values joined by “and” are separate entries in the source; they are usually repeats but may differ in a detail not shown here. Equal values may be shown once.

Take “Fab VH1-46_IGHD6-6*01_IGHJ1*01 S102A/S103P/S104F/H111F (APFF) & L6_IGKJ1*01 S92C”: the ECL signal in experiment [1] came out at 786; in experiment [2] it was 930.

Take “Fab VH1-46_IGHD6-6*01_IGHJ1*01 S102A/S103P/S104F/H111F (APFF) & L6_IGKJ1*01 S92R”: the Signal/Blank in [3] stood at 1.7. Also, the ECL signal in experiment [4] is 418; in [5] it was 418 and 587.

For the substance “Fab VH5-51_IGHD5-18*01>3_IGHJ4*01 & V3-4_IGLJ1*01”, the ECL signal in experiment [6] came out at 547; in [7] it was 742; in experiment [8], 873; in experiment [9] it was 548; in [10], 831; in experiment [11], 854. The ECL signal in experiment [12] worked out at 464; in experiment [13], 358; in experiment [14], 518; in experiment [15], 805; in experiment [16] it was 1030; in [17], 620. The ECL signal in [18] is 914; in experiment [19], 872; in experiment [20], 558; in experiment [21], 542; in experiment [22] it was 651; in experiment [23], 816. Moreover, the ECL signal was found to be 1250 in experiment [24]; 750 in experiment [25]; 1040 in [26]; 1050 in [27]; 685 in experiment [28]; 854 in [29]. The ECL signal in [30] amounted to 960; in experiment [31], 1400; in [32] it was 1590; in experiment [33] it was 1200; in experiment [34], 1520; in [35], 1400. Moreover, the ECL signal in experiment [36] was 929; in experiment [37], 1730.
